PMC10014863, “Structural analysis of the housecleaning nucleoside triphosphate pyrophosphohydrolase MazG from Mycobacterium tuberculosis” (Frontiers in Microbiology, 2023)

Molecular target: the molecule itself
Assay: SEC

Protein | stoichiometry N
Mtb-MazG (1–185) (domain or fragment) MIVVLVDPRRPTLVPVEAIEFLRGEVQYTEEMPVAVPWSLPAARSAHAGNDAPVLLSSDPNHPAVITRLAAGARLISAPDSQRGERLVDAVAMMDKLRTAGPWESEQTHDSLRRYLLEETYELLDAVRSGSVDQLREELGDLLLQVLFHARIAEDASQSPFTIDDVADTLMRKLGNRAPGVLAGE | 2
Mtb-MazG E119A (enzyme) MIVVLVDPRRPTLVPVEAIEFLRGEVQYTEEMPVAVPWSLPAARSAHAGNDAPVLLSSDPNHPAVITRLAAGARLISAPDSQRGERLVDAVAMMDKLRTAGPWESEQTHDSLRRYLLEATYELLDAVRSGSVDQLREELGDLLLQVLFHARIAEDASQSPFTIDDVADTLMRKLGNRAPGVLAGESISLEDQLAQWEAAKASEKARKSVADDVHTGQPALALAQKVIQRAQKAGLPAHLIPDEITSVSVSADVDAENTLRTAVLDFIDRLRCAERAIAVARRGSNVAEQLDVTPLGVITEQEWLAHWPTAVNDSRGGSKKRKGMR | 2
Mtb-MazG E122A (enzyme) MIVVLVDPRRPTLVPVEAIEFLRGEVQYTEEMPVAVPWSLPAARSAHAGNDAPVLLSSDPNHPAVITRLAAGARLISAPDSQRGERLVDAVAMMDKLRTAGPWESEQTHDSLRRYLLEETYALLDAVRSGSVDQLREELGDLLLQVLFHARIAEDASQSPFTIDDVADTLMRKLGNRAPGVLAGESISLEDQLAQWEAAKASEKARKSVADDVHTGQPALALAQKVIQRAQKAGLPAHLIPDEITSVSVSADVDAENTLRTAVLDFIDRLRCAERAIAVARRGSNVAEQLDVTPLGVITEQEWLAHWPTAVNDSRGGSKKRKGMR | 2
Mtb-MazG D141A (enzyme) MIVVLVDPRRPTLVPVEAIEFLRGEVQYTEEMPVAVPWSLPAARSAHAGNDAPVLLSSDPNHPAVITRLAAGARLISAPDSQRGERLVDAVAMMDKLRTAGPWESEQTHDSLRRYLLEETYELLDAVRSGSVDQLREELGALLLQVLFHARIAEDASQSPFTIDDVADTLMRKLGNRAPGVLAGESISLEDQLAQWEAAKASEKARKSVADDVHTGQPALALAQKVIQRAQKAGLPAHLIPDEITSVSVSADVDAENTLRTAVLDFIDRLRCAERAIAVARRGSNVAEQLDVTPLGVITEQEWLAHWPTAVNDSRGGSKKRKGMR | 2
Mtb-MazG E138A (enzyme) MIVVLVDPRRPTLVPVEAIEFLRGEVQYTEEMPVAVPWSLPAARSAHAGNDAPVLLSSDPNHPAVITRLAAGARLISAPDSQRGERLVDAVAMMDKLRTAGPWESEQTHDSLRRYLLEETYELLDAVRSGSVDQLREALGDLLLQVLFHARIAEDASQSPFTIDDVADTLMRKLGNRAPGVLAGESISLEDQLAQWEAAKASEKARKSVADDVHTGQPALALAQKVIQRAQKAGLPAHLIPDEITSVSVSADVDAENTLRTAVLDFIDRLRCAERAIAVARRGSNVAEQLDVTPLGVITEQEWLAHWPTAVNDSRGGSKKRKGMR | 2
